Experimental data from publication PMC8063739.

Target: 11th type II cohesin module of the primary scaffoldin ScaA1 of B. cellulosolvens (BcCohScaA1_(11)) (Bacteroides (Pseudobacteroides) cellulosolvens) (UniProt Q9FDJ9)
Assay: ITC; 308 K; Doc constructs in the cell titrated with 28 injections of 10 μl BcCohScaA1_(11); single-site model

Sequence of UniProt Q9FDJ9 (Q9FDJ9 entry or part of it): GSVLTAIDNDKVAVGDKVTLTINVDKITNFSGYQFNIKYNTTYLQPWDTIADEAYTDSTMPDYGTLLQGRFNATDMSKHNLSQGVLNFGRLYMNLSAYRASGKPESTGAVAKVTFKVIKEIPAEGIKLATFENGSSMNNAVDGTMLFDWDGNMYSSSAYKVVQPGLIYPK

Going from “TrxA-BcDocCel48 mutant M1 (M17S/A18D) (domain or fragment)” to “TrxA-BcDocCel48 mutant M1 + F60A (domain or fragment)”, the Ka falls from 1.11e+07 M⁻¹ to 58400 M⁻¹ (190-fold).

Going from “TrxA-BcDocCel48 mutant M2 (M50S/A51D) (domain or fragment)” to “TrxA-BcDocCel48 mutant M2 + F27A (domain or fragment)”, the Ka falls from 1.41e+06 M⁻¹ to 445000 M⁻¹ (3.2-fold).

First: TrxA-BcDocCel48 mutant M21A/I54A (domain or fragment)
Second: TrxA-BcDocCel48 mutant N16A/N49A (domain or fragment)
The Ka of the first is 8.8-fold higher: 1.2e+06 M⁻¹ for the first, 136000 M⁻¹ for the second.

Compared with “TrxA-BcDocCel48 mutant Q25A/Q58A (domain or fragment)”, “Wild-type BcDocCel48 fused to TrxA (TrxA-BcDocCel48) (domain or fragment)” is 25-fold higher in Ka: 1.35e+06 M⁻¹ for the first, 3.31e+07 M⁻¹ for the second.

First: TrxA-BcDocCel48 mutant M1 (M17S/A18D) (domain or fragment)
Second: TrxA-BcDocCel48 mutant M1 + F60A (domain or fragment)
The dH of the first is higher: -16 kcal/mol for the first, -60.9 kcal/mol for the second.

Going from “TrxA-BcDocCel48 mutant M2 (M50S/A51D) (domain or fragment)” to “TrxA-BcDocCel48 mutant M2 + F27A (domain or fragment)”, the dH rises from -17.7 kcal/mol to -13.2 kcal/mol.

Compared with “TrxA-BcDocCel48 mutant M21A/I54A (domain or fragment)”, “TrxA-BcDocCel48 mutant N16A/N49A (domain or fragment)” is lower in dH: -9.3 kcal/mol for the first, -14.1 kcal/mol for the second.

Compared with “TrxA-BcDocCel48 mutant Q25A/Q58A (domain or fragment)”, “Wild-type BcDocCel48 fused to TrxA (TrxA-BcDocCel48) (domain or fragment)” is lower in dH: -8.86 kcal/mol for the first, -15.2 kcal/mol for the second.

First: TrxA-BcDocCel48 mutant M1 (M17S/A18D) (domain or fragment)
Second: TrxA-BcDocCel48 mutant M1 + F60A (domain or fragment)
The stoichiometry N of the first is lower: 0.98 for the first, 1.01 for the second.

First: TrxA-BcDocCel48 mutant M2 (M50S/A51D) (domain or fragment)
Second: TrxA-BcDocCel48 mutant M2 + F27A (domain or fragment)
The stoichiometry N of the first is lower: 0.99 for the first, 1.01 for the second.

Going from “TrxA-BcDocCel48 mutant M21A/I54A (domain or fragment)” to “TrxA-BcDocCel48 mutant N16A/N49A (domain or fragment)”, the stoichiometry N falls from 1 to 0.99.

Going from “TrxA-BcDocCel48 mutant Q25A/Q58A (domain or fragment)” to “Wild-type BcDocCel48 fused to TrxA (TrxA-BcDocCel48) (domain or fragment)”, the stoichiometry N falls from 0.99 to 0.98.
